We go through 116 sequences from the supplement of paper PMC10724198.

± gives the standard deviation of the averaged measurements.
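Further: PSI is a weighted mean of sequencing reads over stability bins, variants kept only with over 10 reads, mCherry proximal and sfGFP distal, peptide attached via GGGS linker.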

In the data set the test system is Saccharomyces cerevisiae. The data set can be described thus: protein stability index of tFT-peptide fusion (C-terminal peptide) (PSI (0-1 scale)); higher = more stable (slower turnover). The following applies: genetic background: wild type; temperature: 30 C.
Consider KIHRNGNKKEKD, for which the protein stability index came to 0.7 ± 0.013.
Sequence KIKKKKEQTKKK gave a protein stability index of 0.752 ± 0.15.
Then KIKKKKKKNKEH, with 0.591 ± 0.028; and KIKRKKSIHDKQ, with 0.693 ± 0.012.
Then KIKRTNKNIKKS, with 0.672 ± 0.017; and KIKSEFNMIGKN, with 0.693 ± 0.091.
For the sequence KILNIKCLLANK, the protein stability index stood at 0.686 ± 0.017.
Then KILRKVIKQKGN, with 0.599 ± 0.041; and KIRIWWIEEKTI, with 0.6067 ± 0.0023; and KIRRECIGSSVY, with 0.687 ± 0.019.
Then KISNRNKRTNRK, with 0.689 ± 0.077.
Then KITKRTKKTKEN, with 0.67086 ± 0.00056.
For KKDQEKEKKGKE, the protein stability index came to 0.613 ± 0.015.
Then KKEAKRDKKSGR, with 0.727 ± 0.12; and KKEEKKRRKPQR, with 0.626 ± 0.039; and KKEKKKTKKWQE, with 0.694 ± 0.1.
KKEPEKEQQNKE gave a protein stability index of 0.746 ± 0.097.
KKEQKRKKKEKQ registered a protein stability index of 0.758 ± 0.098.
Then KKERINNDLPGS, with 0.619 ± 0.026; and KKERSTKTNRNV, with 0.635 ± 0.0072; and KKGRKKEGKREK, with 0.621 ± 0.06.
The value for KKIKKRQSKENK was 0.704 ± 0.015; that for KKKENRQKREIQ was 0.647 ± 0.029; that for KKKETEKPRKQK was 0.677 ± 0.054.
Sequence KKKETKKENKKK had a protein stability index of 0.723 ± 0.034.
Then KKKHKNNIQKKK, with 0.6129 ± 0.0017; and KKKIKKKSIKKT, with 0.7074 ± 0.0044; and KKKKEEKWSSAR, with 0.709 ± 0.061.
Then KKKKGNKKRREK, with 0.731 ± 0.0083; and KKKKHKNRKEKQ, with 0.692 ± 0.019.
The value for KKKKIIKKKNIK was 0.77 ± 0.069.
KKKKKEEKKNDK registered a protein stability index of 0.721 ± 0.0073.
Then KKKKKIHIKNKK, with 0.707 ± 0.052; and KKKKKKKKQNQK, with 0.7 ± 0.03.
Then KKKKKKKNKKQE, with 0.7456 ± 0.005; and KKKKKKKQKSKK, with 0.704 ± 0.057; and KKKKKKLKKKKI, with 0.724 ± 0.056.
Then KKKKKKNKKEKK, with 0.689 ± 0.12.
KKKKKLKERRKI yielded a protein stability index of 0.668 ± 0.019.
Then KKKKKNKKKKKK, with 0.705 ± 0.046.
The value for KKKKKQEREKRN was 0.623 ± 0.037; that for KKKKKQKEKKQK was 0.72 ± 0.0083.
Then KKKKKRITKIKN, with 0.7089 ± 0.0018.
In turn, KKKKKRTKKNNH registered a protein stability index of 0.767 ± 0.11.
The value for KKKKNKKEEHVE was 0.715 ± 0.02.
Then KKKKNKKIKINE, with 0.6874 ± 0.0033; and KKKKNKKNKRKN, with 0.613 ± 0.034; and KKKKNKNKRTRK, with 0.662 ± 0.038.
Then KKKMINQKKKKD, with 0.649 ± 0.016.
With KKKNKEKSKKKK, the protein stability index came to 0.761 ± 0.05.
The value for KKKNKKQNKAKK was 0.6396 ± 0.0023; that for KKKRKKNRKTNK was 0.67 ± 0.02.
Consider KKKSNNNNQKPH, for which the protein stability index is 0.737 ± 0.016.
Sequence KKMNVKNNKSKI registered a protein stability index of 0.777 ± 0.17.
The value for KKNLITRQNPLS was 0.69004 ± 0.0003.
In the case of KKNQKEKATSRK, the protein stability index was 0.769 ± 0.043.
Then KKNQNSKNRKEN, with 0.627 ± 0.036.
Then KKNRSRKRRNKK, with 0.713 ± 0.032.
Then KKNYNTKLTQHP, with 0.683 ± 0.04.
Sequence KKRKKNIKQNTK displayed a protein stability index of 0.617 ± 0.043.
Then KKRQKKKKLIPQ, with 0.697 ± 0.024; and KKTDKSNKVKRI, with 0.669 ± 0.013; and KKWRKKTEHDKE, with 0.729 ± 0.028.
Sequence KKYEKNGKSSQK had a protein stability index of 0.685 ± 0.1.
Then KKYETNENNQKK, with 0.686 ± 0.027; and KKYKKIGYRRIP, with 0.773 ± 0.12; and KKYNRNRIKKAR, with 0.7 ± 0.08.
With KKYYCRKLNTKK, the protein stability index was 0.715 ± 0.017.
The value for KLKACRIHEENR was 0.676 ± 0.019.
On to KLKNKRKKIRNR, for which the protein stability index was 0.71 ± 0.045.
KLNKKKKITIRI had a protein stability index of 0.589 ± 0.025.
Then KLRSTLVSAQGV, with 0.652 ± 0.015.
The value for KLTKAQPRMPLL was 0.702 ± 0.027.
KLVVFPYIRPSP yielded a protein stability index of 0.709 ± 0.021.
KMCISLGTVLAV returned a protein stability index of 0.5504 ± 0.0055.
The value for KMSRKIKIRERG was 0.658 ± 0.016.
Then KNCYPTKKIAIK, with 0.638 ± 0.016; and KNDLHGLFLMSE, with 0.648 ± 0.041.
The value for KNIEKKKQKDTQ was 0.645 ± 0.058.
In the case of KNITVVKKAFDA, the protein stability index came to 0.654 ± 0.024.
The value for KNKFSTWDNEVN was 0.718 ± 0.041; that for KNKKKKINKNKK was 0.713 ± 0.067; that for KNKKNKKKKTMK was 0.685 ± 0.041.
The value for KNKKRDKYRKKT was 0.607 ± 0.011; that for KNKRTQKKKRKK was 0.7299 ± 0.0016.
Then KNRKIIIITLPK, with 0.63 ± 0.036.
Turning to KPKKKRTKQRKR, the protein stability index is 0.705 ± 0.08.
For KPKRIRCDRSPH, the protein stability index is 0.694 ± 0.019.
Then KPPCFSPTHHCP, with 0.713 ± 0.0018; and KQANTKINSQKT, with 0.712 ± 0.036.
Then KQGFVRARSYHP, with 0.699 ± 0.013; and KQKKTKKTKKQN, with 0.647 ± 0.044; and KQKQNKKKNNKT, with 0.843 ± 0.16.
The value for KQLGMTCRYISK was 0.692 ± 0.022; that for KQMRIEYKTRNI was 0.604 ± 0.015.
Take KQRQTKTIRGPR: the protein stability index amounted to 0.672 ± 0.059.
The value for KQWCFLKWGVNV was 0.558 ± 0.058.
Then KREKENIAKSSV, with 0.718 ± 0.078.
The value for KREMCHRYTRRS was 0.67 ± 0.097.
Regarding KRFQDRPRPGAH, the protein stability index worked out at 0.687 ± 0.044.
The value for KRGYLRTNPLSY was 0.7056 ± 0.0061; that for KRHCDRVLKMWH was 0.641 ± 0.11; that for KRKEEKKPLINE was 0.734 ± 0.072.
Then KRKEKAKRTKHV, with 0.641 ± 0.035; and KRKKKKKRRTKK, with 0.6442 ± 0.0045.
The value for KRKKKRRKETLY was 0.641 ± 0.037; that for KRKKQGNKKQEE was 0.6893 ± 0.0017; that for KRKRQKNIRNER was 0.704 ± 0.12.
The sequence KRKTKIEQDQRQ displayed a protein stability index of 0.6704 ± 0.0056.
The value for KRREEKKRKRVE was 0.648 ± 0.094; that for KRRQGRGAKGGE was 0.629 ± 0.045; that for KRRSHRQHSRRR was 0.559 ± 0.032.
The value for KRSARRAGRATP was 0.761 ± 0.14; that for KRVTYKRIRSKI was 0.799 ± 0.029; that for KSAGLKPNWSTT was 0.696 ± 0.065.
Then KSDSDNCQALTY, with 0.679 ± 0.067.
